Results: patent US8840886B2, “Method of treating cancer with DLL4 antagonist and chemotherapeutic agent” (Regeneron Pharmaceuticals, Inc., priority 2009, dated 2014)

Experiments:
[1] = test system: human VM-Cub1 tumor cells (bladder carcinoma cells); assay: VM-Cub1 bladder carcinoma xenograft tumor growth, REGN421 with cisplatin (Example 1); type: in vivo, mouse; settings: for TGI: 3 doses, at day 32; for Euthanized: control cohort euthanized day 32; for TGD: time to 600 mm^3 vs control
Experimental: The effect of anti-Dll4 antibody (REGN421) in combination with cisplatin (platinol, cis-diamminedichloroplatinum) on tumor growth was evaluated on tumors implanted in Severe Combined Immunodeficiency (SCID) mice expressing a humanized Dll4 protein (humanized Dll4 SCID mice). The humanized Dll4 SCID mouse was made by replacing the entire extracellular domain of the mouse Dll4 gene with the corresponding extracellular region of the human Dll4 gene (7 kb) in embryonic stem (ES) cells. Homozygous hDll4 mice were generated and bred into SCID background.
Each mouse was implanted subcutaneously (sc) with 1×10^6 human VM-Cub1 tumor cells (bladder carcinoma cells) plus MATRIGEL™ (BD Biosciences, #354234). After the tumors were established in the mice (tumor size of 150-200 mm^3, approximately 14 days after implantation), tumors were measured, randomized and treated with hFc, REGN421, cisplatin, or combination of REGN421 and cisplatin. A total of 45 mice were divided into nine groups (n=5 per cohort). The first group was treated subcutaneously (sc) with hFc at 2 mg/kg; the second and third groups were treated sc with REGN421 at 0.5 and 2 mg/kg, respectively; the fourth and fifth groups were treated intraperitoneally (ip) with cisplatin at 0.5 and 2 mg/kg, respectively; the sixth group was treated sc with REGN421 at 0.5 mg/kg and ip with cisplatin at 0.5 mg/kg; the seventh group was treated sc with REGN421 at 0.5 mg/kg and ip with cisplatin at 2 mg/kg; the eighth group was treated sc with REGN421 at 2 mg/kg and ip with cisplatin at 0.5 mg/kg; and the ninth group was treated sc with REGN421 at 2 mg/kg and ip with cisplatin at 2 mg/kg. REGN421 was administered every 3-4 days starting on day 14 and mice received three doses total. Cisplatin was administered every 24 hours starting on day 14; mice received four doses total.
To assess the effects of REGN421 and cisplatin as single agents or in combination treatments, the changes in tumor size were recorded. Tumor growth was measured three days before the initial REGN421 treatment, on the day of each REGN421 treatment (days 14, 17 and 21) and thereafter every 3-4 days until tumors reached ˜600 mm^3 in size. In vivo tumor size was calculated using the formula (length×width^2)/2 (FIG. 1 and Table 1).
Tumor Growth Inhibition, TGI, was determined by calculating the difference in tumor size for treated (T) versus vehicle control (C) tumor at the day the control cohort was euthanized (i.e., at day 32); TGI=[1−(Tfinal−Tinitial)/(Cfinal−Cinitial)]×100.
Tumor growth delay, TGD, was assessed as the difference in days between treated (T) versus control (C) tumors when each cohort reached a specified tumor size. The predetermined tumor size for this experiment was 600 mm^3.

[2] = test system: human HCT116 tumor cells; assay: HCT116 xenograft tumor growth, REGN421 with irinotecan (Example 6); type: in vivo, mouse; settings: REGN421 2 mg/kg sc (6 mg/kg total dose)
Experimental: Each mouse was implanted subcutaneously (sc) with 5×10^6 human HCT116 tumor cells. After the tumors were established in the mice (tumor size of ˜150 mm^3, 15 days after implantation), tumors were measured and randomized. The mice were then treated with hFc, REGN421, irinotecan or combination of REGN421 and irinotecan. A total of 30 mice were divided into 6 groups (n=5 per cohort). The first group was treated sc with hFc at 2 mg/kg; the second group was treated sc with REGN421 at 2 mg/kg; the third and fourth groups were treated ip with irinotecan at 7.5 and 25 mg/kg, respectively; the fifth group was treated sc with REGN421 at 2 mg/kg and ip with irinotecan at 7.5 mg/kg; and the sixth group was treated sc with REGN421 at 2 mg/kg and ip with irinotecan at 25 mg/kg. REGN421 was administered every 3-4 days starting on day 15 and mice received three doses total. Irinotecan was administered every 3-4 days starting on day 15 and mice received three doses total.
To assess the effects of REGN421 and irinotecan as single agents or in combination treatments, the changes in tumor size (volume) are measured, starting three days before the initial REGN421 treatment, and then on the day of each agent treatment (days 15, 19, 22) and thereafter every 3-4 days until tumors reach ˜600 mm^3 in size. In vivo tumor size is calculated using the formula (length×width^2)/2.

[3] = Phase I pharmacokinetics of REGN421, single 30-min IV infusion, ELISA (Example 8); type: in vivo, human; settings: mean
Experimental: REGN421 is currently being studied in a first-in-human trial. The primary objective of the study is to determine the recommended dose of REGN421 for future efficacy trials. The secondary objectives are to characterize the drug safety profile, its pharmacokinetics, immunogenicity, and pharmacodynamics, as well as preliminary evidence of efficacy. In this study, anti-hDll4 antibody REGN 421 is administered intravenously every 3 weeks to patients whose cancer has progressed on conventional therapy. The study design follows standard methodology for dose escalation and definition of dose-limiting toxicity. To date, 7 patients have been treated at 0.25 mg/kg/dose every three weeks, and 6 patients have been treated at 0.50 mg/kg/dose every three weeks. For the pharmacokinetic study, blood samples were taken at pre-dose, 0 hour, and post-dose 1, 2, 4 and 8 hours on Day 1, followed by Days 2, 3, 4, 8 and 15 of Cycle 1; and pre-dose, 0 hour on Day 1 of Cycles≧2, and post-treatment follow-up on Days 15, 30 and 60. Plasma/serum levels of REGN421 in the samples are measured by ELISA with an upper limit of quantification of 2.5 μg/mL and a lower limit of quantification of 0.039 μg/mL in the undiluted serum sample. The study is ongoing with the intent to administer higher doses, defined in the protocol as 1, 2, 4, and 7 mg/kg/dose.
The currently available data showing plasma pharmacokinetic parameters following single 30-min. Cmax: Maximum serum concentration of the drug; Tlast: Time to the last quantifiable concentration of the drug; Clast: Last quantifiable concentration of the drug; AUClast: Area under curve up to the last concentration of the drug; AUC: Total area under the curve (i.e., drug exposure); t1/2Z: Terminal half life; Vss: Volume of distribution at steady state; CL: Drug clearance rate. Values are: mean, (CV %), and [range] (a: median [range]).

B1: REGN421: anti-hDll4 antibody comprising HCVR/LCVR combination of SEQ ID NO:116/118 (antibody, V domains shown)
VH: QVQLVESGGGVVQPGRSLRLSCAASGFTFSSYGMHWVRQAPGKGLEWVSFLWYDGTNKNYVESVKGRFTISRDNSKNMLYLEMNSLRAEDTAVYYCARDHDFRSGYEGWFDPWGQGTLVTVSS
VL: EIVLTQSPATLSLSPGERATLSCRASQSVSSYLAWYQQKPGQAPRLLIYDASNRATGIPARFSGSGSGTDFTLTISSLEPEDFAVYYCQHRSNWPPTFGGGTKVEIK
- TGI ([1]; REGN421 0.5 mg/kg/dose sc): −13.7%
- Euthanized ([1]; REGN421 0.5 mg/kg/dose sc): 32 days
- TGD ([1]; REGN421 0.5 mg/kg/dose sc): 0 days
- TGI ([1]; REGN421 2 mg/kg/dose sc): 83.1%
- Euthanized ([1]; REGN421 2 mg/kg/dose sc): 44 days
- TGD ([1]; REGN421 2 mg/kg/dose sc): 12 days
- TGD [2]: 9 days
- AUC ([3]; 0.25 mg/kg IV, n = 7 patients): 489 µg·h/mL
- AUClast ([3]; 0.25 mg/kg IV, n = 7 patients): 452 µg·h/mL
- AUC ([3]; 0.5 mg/kg IV, n = 2 patients): 963 µg·h/mL
- AUClast ([3]; 0.5 mg/kg IV, n = 2 patients): 759 µg·h/mL
